From publication PMC8809517, “Cofactor-independent RNA editing by a synthetic S-type PPR protein”

T1: GFP-9S library array, motif 4 ND N98Y;D124P (synthetic construct, N98Y;D124P)
T1 chain: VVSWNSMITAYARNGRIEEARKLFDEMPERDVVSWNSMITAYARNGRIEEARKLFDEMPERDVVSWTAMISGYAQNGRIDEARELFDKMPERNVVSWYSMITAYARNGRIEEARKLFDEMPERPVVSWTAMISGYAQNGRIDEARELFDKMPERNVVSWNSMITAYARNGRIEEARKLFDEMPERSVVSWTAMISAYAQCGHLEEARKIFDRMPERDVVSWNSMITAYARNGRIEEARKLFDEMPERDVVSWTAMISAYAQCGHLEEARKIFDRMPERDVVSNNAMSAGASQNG

T2: GFP-9S library array, motif 4 ND N98W;D124R (synthetic construct, N98W;D124R)
T2 chain: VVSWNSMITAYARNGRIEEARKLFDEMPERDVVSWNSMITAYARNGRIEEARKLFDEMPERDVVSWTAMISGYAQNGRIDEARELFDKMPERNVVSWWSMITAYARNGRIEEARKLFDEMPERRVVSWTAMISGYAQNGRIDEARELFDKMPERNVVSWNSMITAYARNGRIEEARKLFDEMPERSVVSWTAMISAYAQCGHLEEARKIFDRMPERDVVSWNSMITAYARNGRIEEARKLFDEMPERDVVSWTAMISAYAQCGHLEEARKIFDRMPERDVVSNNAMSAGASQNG

T3: GFP-9S library array, motif 4 ND D124L (synthetic construct, D124L)
T3 chain: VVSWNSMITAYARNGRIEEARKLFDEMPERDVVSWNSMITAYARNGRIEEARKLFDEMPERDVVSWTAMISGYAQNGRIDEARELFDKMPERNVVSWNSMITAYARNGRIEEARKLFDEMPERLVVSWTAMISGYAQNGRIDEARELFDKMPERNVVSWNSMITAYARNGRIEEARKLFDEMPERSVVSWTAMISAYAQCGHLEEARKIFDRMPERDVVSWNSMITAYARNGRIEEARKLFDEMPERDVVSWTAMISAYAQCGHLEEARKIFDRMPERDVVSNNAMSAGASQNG

T4: GFP-9S library array, motif 4 ND N98L;D124L (synthetic construct, N98L;D124L)
T4 chain: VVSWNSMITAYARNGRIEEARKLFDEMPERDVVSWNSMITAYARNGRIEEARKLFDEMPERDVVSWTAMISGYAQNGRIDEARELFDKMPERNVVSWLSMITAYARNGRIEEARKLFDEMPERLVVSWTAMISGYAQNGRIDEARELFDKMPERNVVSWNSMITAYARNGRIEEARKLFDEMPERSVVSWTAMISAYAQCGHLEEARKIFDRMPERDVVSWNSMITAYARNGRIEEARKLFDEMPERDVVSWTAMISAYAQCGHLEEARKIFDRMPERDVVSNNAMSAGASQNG

T5: GFP-9S library array, motif 4 ND N98S;D124E (synthetic construct, N98S;D124E)
T5 chain: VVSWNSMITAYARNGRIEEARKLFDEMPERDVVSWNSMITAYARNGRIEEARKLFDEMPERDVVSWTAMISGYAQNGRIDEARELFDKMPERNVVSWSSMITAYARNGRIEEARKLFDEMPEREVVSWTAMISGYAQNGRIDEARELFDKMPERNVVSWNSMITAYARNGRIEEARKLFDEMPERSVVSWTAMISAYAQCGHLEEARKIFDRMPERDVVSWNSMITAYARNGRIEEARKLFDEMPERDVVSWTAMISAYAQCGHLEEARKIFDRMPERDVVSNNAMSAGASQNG


Experiments:
Test in all cases: high-throughput RNA pulldown from lysate on Ni-NTA beads; HRP: 50 mM Tris pH 8, 150 mM NaCl, 1 mM beta-mercaptoethanol, 50 ug/ml BSA, 3 ug/ml yeast RNA, 0.5% heparin; ITC and FP: Tris pH 8, 200 mM KCl, 5% glycerol; MST: 50 mM Tris pH 8, 200 mM NaCl, 1 mM DTT, BSA, heparin, 0.05% Tween 20
Conditions in all cases: tags: N-terminal His-eGFP
[1] = target: T1, GFP-9S library array, motif 4 ND …
[2] = target: T2, GFP-9S library array, motif 4 ND …
[3] = target: T3, GFP-9S library array, motif 4 ND D124L
[4] = target: T4, GFP-9S library array, motif 4 ND …
[5] = target: T5, GFP-9S library array, motif 4 ND …

Binder | Kd ([1]; label: 5' IRDye 800CW) [nM] | Kd ([2]; label: 5' IRDye 800CW) [nM] | Kd ([3]; label: 5' IRDye 800CW) [nM] | Kd ([4]; label: 5' IRDye 800CW) [nM] | Kd ([5]; label: 5' IRDye 800CW) [nM] | Kd ([1]; label: 5' Cy5) [nM] | Kd ([2]; label: 5' Cy5) [nM] | Kd ([3]; label: 5' Cy5) [nM] | Kd ([4]; label: 5' Cy5) [nM] | Kd ([5]; label: 5' Cy5) [nM]
AUUAAACGUGA (ssRNA) [IR-rpoA-A] | 219 | 206 | 291 | 157 | 70.5 |  |  |  |  | 
AUUACACGUGA (ssRNA) [Cy5-rpoA] |  |  |  |  |  | 106 | 113 | 105 | 74.9 | 276
AUUAUACGUGA (ssRNA) [IR-rpoA-U] | 160 | 317 | 96.6 | 158 | 201 |  |  |  |  | 
AUUAGACGUGA (ssRNA) [Cy5-rpoA-G] |  |  |  |  |  | 110 | 90.3 | 131 | 76.1 | 122
